Measurements: patent US20130183348A1, “Inhibitor of HMGB Protein-Mediated Immune Response Activation, and Screening Method” (JAPAN SCIENCE AND TECHNOLOGY AGENCY, published 2013)
One block for each binder: values may come before it.

Assays:
[1] = target: T1, HMGB1 (Mus musculus, UniProt P63158 SEQ:1-215); assay: pulldown; CpG-B ODN competing biotin-B-DNA; recombinant HMGB1 or 2 used, protein of this panel not specified; settings: tags: GST-tagged, tag removed with thrombin (pGEX4T3)
Description: (§1) In vitro pull-down assay was carried out as follows. At first, a recombinant of HMGB1, 2, or 3 was treated in the presence or absence of a competitor at room temperature for 30 minutes. The supernatant was mixed with a biotin-labeled B-DNA at 4° C. for 30 minutes, then streptavidin-bound magnetic beads (Invitrogen Corporation) were added thereto, and the mixture was incubated in a binding buffer (50 mM Tris-Cl, pH 7.5, 150 mM NaCl, 1 mM EDTA, 1% NP-40, 100 μg/mL leupeptin, 1 mM PMSF, 1 mM Na₃VO₄). Subsequently, the mixture was sufficiently washed with a binding buffer, was separated by SDS-PAGE, and then was immunoblotted using an anti-HMGB1, 2, or 3 antibody.
Binding of HMGB to DNA, RNA and base-free phosphorothioate deoxyribose homopolymer (PS) was investigated. In vitro pull-down assay using recombinant HMGB1 or 2 and biotin-bound B-DNA was performed in the presence of 1, 3, 10, 30 and 100 μg/mL of unlabeled nucleic acid (B-DNA, poly(I:C), poly(U), bovine thymus DNA, or microbial DNA), R837 (1, 3, 10, 30 and 100 μg/mL) (upper and middle panels), base-free natural deoxyribose homopolymer (PD: 0.01, 0.1, 0.3, 1 and 3 μg/mL, lower panel), or base-free phosphorothioate deoxyribose homopolymer (PS: 0.01, 0.1, 0.3, 1 and 3 μg/mL, lower panel). In the lower panel, unlabeled B-DNA or CpG-B ODN having stepwise increasing concentrations (0.1, 0.3, 1 and 3 μg/mL) was also used. […]

[2] = target: T1, HMGB1; assay: pulldown; biotin-CpG-B(S) 0.2 uM pulled down HMGB1; also completely inhibited B-DNA binding; settings: tags: GST-tagged, tag removed with thrombin (pGEX4T3)
Description: (§2) In more detail, a final concentration of 0, 0.1, 0.5, 2.5, 12.5, or 62.5 μg/mL of CpG-B(S) as a competitor was added to 2 μg of a recombinant HMGB1 protein and a final concentration of 2.5 μg/mL of biotin-labeled B-DNA, and they were incubated (room temperature, 30 minutes). The biotin-labeled B-DNA was pulled down with streptavidin-bound magnetic beads, and HMGB1 in the coprecipitated protein was detected by Western blotting using an anti-HMGB1 antibody. In addition, a final concentration of 0, 1, 2, 4, 8, 16, or 32 μM of a competitor: CpG-B(S) not labeled with biotin, CpG-M(S), ODN(PS) composed of only a phosphorothioate backbone and not having any base, or ODN(CpG-M) having the same sequence as that of CpG-M(S) and a phosphodiester backbone, was added to 2 μg of the recombinant HMGB1 protein and a final concentration of 0.2 μM of biotin-labeled CpG-B(S). The biotin-labeled CpG-B was pulled down with streptavidin-bound magnetic beads, and HMGB1 in the coprecipitated protein was detected by Western blotting using an anti-HMGB1 antibody.

[3] = target: T2, CFP-tagged RIG-I (CFP-RIG-I) (mouse, UniProt Q6Q899 1-926); assay: confocal fluorescence microscopy of HeLa cells cotransfected with CFP-RIG-I and YFP-HMGB1 and stimulated with poly(I:C); the filing's interpretation of co-localisation
T2 construct: Expressed in HeLa cells from the pCAGGS-CFP vector; not shown: CFP tag from the pCAGGS-CFP vector
T2 sequence (looked up): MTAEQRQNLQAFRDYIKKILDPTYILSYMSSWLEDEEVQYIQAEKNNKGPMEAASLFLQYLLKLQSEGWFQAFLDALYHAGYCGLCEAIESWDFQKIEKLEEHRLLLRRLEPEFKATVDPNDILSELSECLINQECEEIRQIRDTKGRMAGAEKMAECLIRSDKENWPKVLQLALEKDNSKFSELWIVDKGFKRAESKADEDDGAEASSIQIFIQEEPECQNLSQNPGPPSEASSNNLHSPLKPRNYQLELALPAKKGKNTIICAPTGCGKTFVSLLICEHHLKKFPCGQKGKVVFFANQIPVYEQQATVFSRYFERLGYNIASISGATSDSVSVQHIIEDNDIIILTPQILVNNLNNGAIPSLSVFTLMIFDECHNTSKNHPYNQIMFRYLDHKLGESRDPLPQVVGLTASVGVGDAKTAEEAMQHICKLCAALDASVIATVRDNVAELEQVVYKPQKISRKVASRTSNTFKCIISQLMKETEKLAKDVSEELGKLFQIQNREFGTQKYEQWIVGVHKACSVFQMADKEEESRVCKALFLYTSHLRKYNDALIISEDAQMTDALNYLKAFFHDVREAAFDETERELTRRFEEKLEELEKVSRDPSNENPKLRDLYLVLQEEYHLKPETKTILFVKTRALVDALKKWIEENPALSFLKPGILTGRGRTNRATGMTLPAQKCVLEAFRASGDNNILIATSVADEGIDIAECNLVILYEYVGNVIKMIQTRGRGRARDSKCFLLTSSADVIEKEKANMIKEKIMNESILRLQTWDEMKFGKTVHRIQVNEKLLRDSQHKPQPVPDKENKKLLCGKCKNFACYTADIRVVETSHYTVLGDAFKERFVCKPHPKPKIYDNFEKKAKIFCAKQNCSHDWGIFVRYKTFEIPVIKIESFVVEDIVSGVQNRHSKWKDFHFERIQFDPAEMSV
Description: Intracellular localization of HMGB1 and RIG-I was investigated. Expression vectors of CFP-tagged RIG-I (CFP-RIG-I) and YFP-tagged HMGB1 (YFP-HMGB1) were introduced, together with RFP-tagged Rab5 (RFP-Rab5) or without RFP-Rab5, into HeLa cells. At 16 hours after the gene transfer, the cells were stimulated with poly(I:C) for 2 hours, and fluorescence microscopic observation was performed using a laser scanning confocal microscope.

[4] = target: T1, HMGB1; assay: competition; competes biotin-B-DNA; higher competitivity than PS; settings: tags: GST-tagged, tag removed with thrombin (pGEX4T3)
Description: as §1
As in Example 13, in vitro pull-down assay using recombinant HMGB1 and biotin-bound B-DNA was performed for 0.1, 0.5, 2.5, 12.5 and 62.5 μg/mL of CpG-B(S), CpG-Rev(S), CpG-M(S) and PS, as competitors.

[5] = target: T1, HMGB1; assay: competition; competes biotin-CpG-B(S) equally to unlabeled CpG-B(S); higher competitivity than PS; settings: tags: GST-tagged, tag removed with thrombin (pGEX4T3)
Description: as §2

Binder: TCCATGACGTTCCTGATGCT (ssDNA, PS all linkages) [CpG-B(S)]
binding result [1]: binds
binding result [2]: binds

binding result [3]: binds
B1: YFP-tagged HMGB1 (YFP-HMGB1) (other, mouse, UniProt P63158 1-215, looked up)
chain: MGKGDPKKPRGKMSSYAFFVQTCREEHKKKHPDASVNFSEFSKKCSERWKTMSAKEKGKFEDMAKADKARYEREMKTYIPPKGETKKKFKDPNAPKRPPSAFFLFCSEYRPKIKGEHPGLSIGDVAKKLGEMWNNTAADDKQPYEKKAAKLKEKYEKDIAAYRAKGKPDAAKKGVVKAEKSKKKKEEEDDEEDEEDEEEEEEEEDEDEEEDDDDE
notes: Expressed in HeLa cells from the pCAGGS-YFP vector; not shown: YFP tag from the pCAGGS-YFP vector

Binder: TCCATGAGCTTCCTGATGCT (ssDNA, PS all linkages) [CpG-Rev(S)]
binding result [4]: binds

Binder: TCCATGAGGTTCCTGATGCT (ssDNA, PS all linkages) [CpG-M(S)]
binding result [5]: binds
